From patent publication US9012617

Experiments:
EphA4 = assay: cell-based or functional assay
EphB2 = assay: cell-based or functional assay

pre-clustered EphrinA1-FC (Fc fusion)
One phase association Tau (GPhosEphA ratio fluorescence after Ephrin addition) (EphA4): 9.6

pre-clustered EphrinB2-FC (Fc fusion)
One phase association Tau (GPhosEphB ratio fluorescence after Ephrin addition) (EphB2): 9.78
